This assay addresses MDA-modified bovine serum albumin (bovine), P02769. The assay is described as follows: MST; microscale thermophoresis with both binding partners in fluid phase. The settings on record: remark: other sources report otherwise.

These results are taken from PMC7211993.

Chain of MDA-modified bovine serum albumin (bovine), P02769 (P02769 25-607): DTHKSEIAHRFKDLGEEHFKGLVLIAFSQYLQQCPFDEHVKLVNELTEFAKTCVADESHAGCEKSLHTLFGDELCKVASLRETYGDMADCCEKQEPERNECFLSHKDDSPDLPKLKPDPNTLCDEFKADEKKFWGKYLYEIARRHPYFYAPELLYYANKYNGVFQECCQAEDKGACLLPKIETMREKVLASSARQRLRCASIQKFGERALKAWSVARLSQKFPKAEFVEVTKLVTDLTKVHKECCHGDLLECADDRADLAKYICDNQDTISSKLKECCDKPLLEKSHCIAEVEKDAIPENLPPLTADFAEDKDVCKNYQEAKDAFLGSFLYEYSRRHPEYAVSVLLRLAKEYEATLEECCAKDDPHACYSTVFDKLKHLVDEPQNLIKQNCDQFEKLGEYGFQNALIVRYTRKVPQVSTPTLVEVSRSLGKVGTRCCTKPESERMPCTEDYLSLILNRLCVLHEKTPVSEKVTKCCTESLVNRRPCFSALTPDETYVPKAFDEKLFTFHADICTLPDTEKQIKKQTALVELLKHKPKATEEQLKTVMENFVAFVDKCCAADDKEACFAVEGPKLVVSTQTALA

B1: complement factor H, P08603 19-1231 (natural protein)
chain: EDCNELPPRRNTEILTGSWSDQTYPEGTQAIYKCRPGYRSLGNVIMVCRKGEWVALNPLRKCQKRPCGHPGDTPFGTFTLTGGNVFEYGVKAVYTCNEGYQLLGEINYRECDTDGWTNDIPICEVVKCLPVTAPENGKIVSSAMEPDREYHFGQAVRFVCNSGYKIEGDEEMHCSDDGFWSKEKPKCVEISCKSPDVINGSPISQKIIYKENERFQYKCNMGYEYSERGDAVCTESGWRPLPSCEEKSCDNPYIPNGDYSPLRIKHRTGDEITYQCRNGFYPATRGNTAKCTSTGWIPAPRCTLKPCDYPDIKHGGLYHENMRRPYFPVAVGKYYSYYCDEHFETPSGSYWDHIHCTQDGWSPAVPCLRKCYFPYLENGYNQNYGRKFVQGKSIDVACHPGYALPKAQTTVTCMENGWSPTPRCIRVKTCSKSSIDIENGFISESQYTYALKEKAKYQCKLGYVTADGETSGSITCGKDGWSAQPTCIKSCDIPVFMNARTKNDFTWFKLNDTLDYECHDGYESNTGSTTGSIVCGYNGWSDLPICYERECELPKIDVHLVPDRKKDQYKVGEVLKFSCKPGFTIVGPNSVQCYHFGLSPDLPICKEQVQSCGPPPELLNGNVKEKTKEEYGHSEVVEYYCNPRFLMKGPNKIQCVDGEWTTLPVCIVEESTCGDIPELEHGWAQLSSPPYYYGDSVEFNCSESFTMIGHRSITCIHGVWTQLPQCVAIDKLKKCKSSNLIILEEHLKNKKEFDHNSNIRYRCRGKEGWIHTVCINGRWDPEVNCSMAQIQLCPPPPQIPNSHNMTTTLNYRDGEKVSVLCQENYLIQEGEEITCKDGRWQSIPLCVEKIPCSQPPQIEHGTINSSRSSQESYAHGTKLSYTCEGGFRISEENETTCYMGKWSSPPQCEGLPCKSPPEISHGVVAHMSDSYQYGEEVTYKCFEGFGIDGPAIAKCLGEKWSHPPSCIKTDCLSLPSFENAIPMGEKKDVYKAGEQVTYTCATYYKMDGASNVTCINSRWTGRPTCRDTSCVNPPTVQNAYIVSRQMSKYPSGERVRYQCRSPYEMFGDEEVMCLNGNWTEPPQCKDSTGKCGPPPPIDNGDITSFPLSVYAPASSVEYQCQNLYQLEGNKRITCRNGQWSEPPKCLHPCVISREIMENYNIALRWTAKQKLYSRTGESVEFVCKRGYRLSSRSHTLRTTCWDGKLEYPTCAKR
modifications: here or on the partner: malondialdehyde-acetaldehyde (MAA) / malondialdehyde (MDA) adducts; sites not stated
In turn, B1 displayed a Kd of 2440 nM.
